The text below walks through data of patent publication US7071301.

Among the targets are ERR Mutant 1 (mouse) (UniProt Q09143); ERR Mutant 10 (mouse) (UniProt Q09143); ERR Mutant 11 (mouse) (UniProt Q09143); ERR Mutant 2 (mouse) (UniProt Q09143); ERR Mutant 3 (mouse) (UniProt Q09143); ERR Mutant 4 (mouse) (UniProt Q09143); ERR Mutant 5 (mouse) (UniProt Q09143); ERR Mutant 6 (mouse) (UniProt Q09143); ERR Mutant 7 (mouse) (UniProt Q09143); ERR Mutant 8 (mouse) (UniProt Q09143); ERR Mutant 9 (mouse) (UniProt Q09143); human H13 (human) (UniProt P30825).
Sequence of UniProt P30825 (P30825 other isoform, or with tags, fused parts or gaps): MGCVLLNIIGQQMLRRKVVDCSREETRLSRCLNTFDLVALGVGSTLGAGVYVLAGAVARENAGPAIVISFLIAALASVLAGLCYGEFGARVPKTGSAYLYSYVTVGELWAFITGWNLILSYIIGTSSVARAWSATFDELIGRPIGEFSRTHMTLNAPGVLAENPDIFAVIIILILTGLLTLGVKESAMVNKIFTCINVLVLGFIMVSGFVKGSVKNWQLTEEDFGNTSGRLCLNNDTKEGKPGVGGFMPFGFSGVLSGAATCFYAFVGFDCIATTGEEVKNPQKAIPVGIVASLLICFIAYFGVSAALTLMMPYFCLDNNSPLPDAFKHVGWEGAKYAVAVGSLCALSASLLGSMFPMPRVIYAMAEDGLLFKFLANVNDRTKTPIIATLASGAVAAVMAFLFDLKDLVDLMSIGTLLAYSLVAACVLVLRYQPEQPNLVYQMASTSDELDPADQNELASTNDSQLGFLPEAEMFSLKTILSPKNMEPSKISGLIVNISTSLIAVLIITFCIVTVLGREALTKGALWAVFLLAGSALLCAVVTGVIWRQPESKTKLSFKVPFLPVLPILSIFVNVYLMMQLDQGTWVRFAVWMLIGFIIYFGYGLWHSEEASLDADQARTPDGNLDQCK

Experiment in all cases: cell-based or functional assay
In experiment [1] the target is Chimera I (mouse-human chimeric receptor, first part from ERR) (mouse; human).
Experiment [2] deals with Chimera II (mouse-human chimeric receptor, last part from ERR) (human; mouse).
For experiment [3], the target named is Chimera III (H13 with NcoI-NcoI fragment from ERR) (human / mouse).
Experiment [4] deals with murine ecotropic retroviral receptor (ERR) (mouse) (UniProt Q09143).

Regarding “recombinant MuLV-E, ψCRE/BAG virions (from UniProt P03385 34-469)”, the numbers of G418-resistant colonies in experiment [1] is 1000 colonies; in experiment [2], 0 colonies; in experiment [3] it was 1000 colonies; with human H13 (human) it was 0 colonies; in experiment [4], > 1000 colonies. Moreover, the colonies in the experiment with ERR Mutant 1 (mouse), with ERR Mutant 10 (mouse), with ERR Mutant 11 (mouse), in the experiment with ERR Mutant 2 (mouse), in the experiment with ERR Mutant 3 (mouse) and with ERR Mutant 4 (mouse) was 500 colonies each time. Also, the colonies in the experiment with ERR Mutant 5 (mouse) turned out to be 500 colonies; with ERR Mutant 6 (mouse), 500 colonies; in the experiment with ERR Mutant 7 (mouse), 0 colonies; with ERR Mutant 8 (mouse), 500 colonies; with ERR Mutant 9 (mouse) it was 500 colonies.
